{"source": "patent US10683329B2", "about": "“Dual-site BACE1 inhibitors” (priority 2014, dated 2020)", "molecules": {"B1": {"name": "Tyr-Pro-Lys-Phe-Ile-Pro-Leu-Gly-DLys-Gly-Glu-Val-Asn-Leu*Ala-Ala-Glu-DPro-Lys(Chol'ester')-NH2 x 3TFA (peptide)", "peptide": "YPKFIPLG[dK]GEVNLAAE[dP]K(Chol'ester')-NH2", "modifications": "also: Leu14*Ala15 Tang hydroxyethylene dipeptide isostere, trifluoroacetate salt (x 3TFA)"}}, "note": "*1 amine or outer side, *2 acyl side, *3 side chain or, on linkers, in order; H or OH if unused. Where a SMILES comes first, the peptide text is derived from it. Where no end group is shown, it is not given here. [ ]: non-standard residue; d: D form. The star is where a group is joined. Succinyl(4-O-cholesteryl) = CC(C)CCC[C@@H](C)[C@H]1CC[C@H]2[C@@H]3CC=C4C[C@@H](OC(=O)CCC(=O)*)CC[C@]4(C)[C@H]3CC[C@]12C; MetSta(3S,4S) = CSCC[C@H](N[*:1])[C@@H](O)CC(=O)[*:2]; Sta = CC(C)C[C@H](N)[C@@H](O)CC(=O)O; PEG4 = NCCOCCOCCOCCOCCC(=O)O; PEG3 = NCCOCCOCCOCCC(=O)O; Ava = NCCCCC(=O)O; βAla = NCCC(=O)O", "data": [{"target": "BACE1 enzyme (UniProt P56817 46-501, limits assumed)", "sequence (P56817 46-501 limits assumed)": "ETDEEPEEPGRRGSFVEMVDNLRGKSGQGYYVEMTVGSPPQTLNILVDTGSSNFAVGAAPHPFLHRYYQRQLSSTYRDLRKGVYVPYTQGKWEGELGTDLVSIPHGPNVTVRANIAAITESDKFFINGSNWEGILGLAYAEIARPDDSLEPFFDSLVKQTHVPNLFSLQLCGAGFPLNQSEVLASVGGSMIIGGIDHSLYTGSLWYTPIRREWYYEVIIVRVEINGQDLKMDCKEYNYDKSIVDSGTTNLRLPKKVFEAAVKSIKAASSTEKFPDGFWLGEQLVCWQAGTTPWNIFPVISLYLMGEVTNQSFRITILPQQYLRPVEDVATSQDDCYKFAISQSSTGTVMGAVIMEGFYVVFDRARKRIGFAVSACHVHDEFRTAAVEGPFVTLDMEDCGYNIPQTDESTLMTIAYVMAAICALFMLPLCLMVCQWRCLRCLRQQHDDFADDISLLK", "test": "cell-based or functional assay", "settings": "not given", "units": {"IC50, cellular Aβ-lowering assay (Aβ40 in supernatant of HEK293 cells expressing human APP695)": "pM"}, "values": [{"molecule": "YPYFIPL[Ava]EVN[Sta]VAE[dP]K(Chol)-NH2 (also: TFA salt)", "note": "[Tyr-Pro-Tyr-Phe-Ile-Pro-Leu-NH(CH2)4CO-Glu-Val-Asn-Sta-Val-Ala-Glu-DPro-Lys(Chol)-NH2 x TFA]", "IC50, cellular Aβ-lowering assay (Aβ40 in supernatant of HEK293 cells expressing human APP695)": 840}, {"molecule": "YPYFIPKG[dK]GEVN[Sta]VAE[dP]K(Chol'ester')-NH2 (also: 3TFA salt)", "IC50, cellular Aβ-lowering assay (Aβ40 in supernatant of HEK293 cells expressing human APP695)": 12}, {"molecule": "YPYF[dK]PLG[dK]GEVN[Sta]VAE[dP]K(Chol'ester')-NH2 (also: x 3TFA salt)", "IC50, cellular Aβ-lowering assay (Aβ40 in supernatant of HEK293 cells expressing human APP695)": 7600}, {"molecule": "YPYFIP[dK]G[dK]GEVN[Sta]VAE[dP]K(Chol'ester')-NH2 (also: x 3TFA salt)", "IC50, cellular Aβ-lowering assay (Aβ40 in supernatant of HEK293 cells expressing human APP695)": 5.9}, {"molecule": "YPYFIPLGGGGEVN[Sta]VAE[dP]K(Chol)-NH2 (also: TFA salt)", "note": "[Tyr-Pro-Tyr-Phe-Ile-Pro-Leu-Gly-Gly-Gly-Gly-Glu-Val-Asn-Sta-Val-Ala-Glu-DPro-Lys(Chol)-NH2 x TFA]", "IC50, cellular Aβ-lowering assay (Aβ40 in supernatant of HEK293 cells expressing human APP695)": 42}, {"molecule": "B1", "IC50, cellular Aβ-lowering assay (Aβ40 in supernatant of HEK293 cells expressing human APP695)": 39}, {"molecule": "YPYFIPLGGGGGEVN[Sta]VAE[dP]K(Chol)-NH2 (also: TFA salt)", "note": "[Tyr-Pro-Tyr-Phe-Ile-Pro-Leu-Gly-Gly-Gly-Gly-Gly-Glu-Val-Asn-Sta-Val-Ala-Glu-DPro-Lys(Chol)-NH2 x TFA]", "IC50, cellular Aβ-lowering assay (Aβ40 in supernatant of HEK293 cells expressing human APP695)": 44}, {"molecule": "YPYFIPL[dA]GGEVN[Sta]VAE[dP]K(Chol'ester')-NH2 (also: x TFA salt)", "note": "[Tyr-Pro-Tyr-Phe-Ile-Pro-Leu-DAla-Gly-Gly-Glu-Val-Asn-Sta-Val-Ala-Glu-DPro-Lys(Chol'ester')-NH2 x TFA]", "IC50, cellular Aβ-lowering assay (Aβ40 in supernatant of HEK293 cells expressing human APP695)": 55}, {"molecule": "YPYFIPLG[dA]GEVN[Sta]VAE[dP]K(Chol'ester')-NH2 (also: x TFA salt)", "note": "[Tyr-Pro-Tyr-Phe-Ile-Pro-Leu-Gly-DAla-Gly-Glu-Val-Asn-Sta-Val-Ala-Glu-DPro-Lys(Chol'ester')-NH2 x TFA]", "IC50, cellular Aβ-lowering assay (Aβ40 in supernatant of HEK293 cells expressing human APP695)": 20}, {"molecule": "YPYFI[dK]LG[dK]GEVN[Sta]VAE[dP]K(Chol'ester')-NH2 (also: x 3TFA salt)", "IC50, cellular Aβ-lowering assay (Aβ40 in supernatant of HEK293 cells expressing human APP695)": 450}, {"molecule": "YPYFIPLGGGGEVN[Sta]DAE[dP]K(Chol)-NH2 (also: x TFA salt)", "note": "[Tyr-Pro-Tyr-Phe-Ile-Pro-Leu-Gly-Gly-Gly-Gly-Glu-Val-Asn-Sta-Asp-Ala-Glu-DPro-Lys(Chol)-NH2 x TFA]", "IC50, cellular Aβ-lowering assay (Aβ40 in supernatant of HEK293 cells expressing human APP695)": 3300}, {"molecule": "YP[dK]FIPLG[dK]GEVN[Sta]VAE[dP]K(Chol'ester')-NH2 (also: x 3TFA salt)", "IC50, cellular Aβ-lowering assay (Aβ40 in supernatant of HEK293 cells expressing human APP695)": 780}, {"molecule": "YPY[dK]IPLG[dK]GEVN[Sta]VAE[dP]K(Chol'ester')-NH2 (also: x 3TFA salt)", "IC50, cellular Aβ-lowering assay (Aβ40 in supernatant of HEK293 cells expressing human APP695)": 6500}, {"molecule": "Y[dK]YFIPLG[dK]GEVN[Sta]VAE[dP]K(Chol'ester')-NH2 (also: x 3TFA salt)", "IC50, cellular Aβ-lowering assay (Aβ40 in supernatant of HEK293 cells expressing human APP695)": 3400}, {"molecule": "YPYFIPL[βAla]EVN[Sta]VAE[dP]K(Chol)-NH2 (also: TFA salt)", "note": "[Tyr-Pro-Tyr-Phe-Ile-Pro-Leu-NH(CH2)2CO-Glu-Val-Asn-Sta-Val-Ala-Glu-DPro-Lys(Chol)-NH2 x TFA]", "IC50, cellular Aβ-lowering assay (Aβ40 in supernatant of HEK293 cells expressing human APP695)": 2800}, {"molecule": "YPKFIPLG[dK]GEVN[MetSta(3S,4S)]VAEPK(Chol'ester')-NH2 (also: x 3TFA salt)", "IC50, cellular Aβ-lowering assay (Aβ40 in supernatant of HEK293 cells expressing human APP695)": 61}, {"molecule": "[dK]PYFIPLG[dK]GEVN[Sta]VAE[dP]K(Chol'ester')-NH2 (also: x 3TFA salt)", "IC50, cellular Aβ-lowering assay (Aβ40 in supernatant of HEK293 cells expressing human APP695)": 13}, {"molecule": "YPYFIPLSGGEVN[Sta]VAE[dP]K(Chol'ester')-NH2 (also: TFA salt)", "note": "[Tyr-Pro-Tyr-Phe-Ile-Pro-Leu-Ser-Gly-Gly-Glu-Val-Asn-Sta-Val-Ala-Glu-DPro-Lys(Chol'ester')-NH2 x TFA]", "IC50, cellular Aβ-lowering assay (Aβ40 in supernatant of HEK293 cells expressing human APP695)": 52}]}, {"target": "T1, BACE1 (Homo sapiens, UniProt P56817)", "T1 construct": "Human HEK293 cells which are stably transfected with a vector expressing a cDNA of the human APP wt gene (APP695); endogenous in cells; host or cells: HEK293 (human), stably transfected with human APP695 wt", "T1 sequence (P56817 46-501)": "as the sequence (P56817 46-501 limits assumed) above", "test": "Cellular Aβ-lowering assay (Aβ40 ELISA of culture supernatant)", "type": "cell-based", "settings": "not given", "experimental": "(§1) The compounds were investigated in accordance with the test given hereinafter.\n(§2) Cellular Aβ-Lowering Assay:\n(§3) Human HEK293 cells which are stably transfected with a vector expressing a cDNA of the human APP wt gene (APP695) were used to assess the potency of the compounds in a cellular assay. The cells were seeded in 96-well microtiter plates in cell culture medium (Iscove, plus 10% (v/v) fetal bovine serum, glutamine, penicillin/streptomycin) to about 80% confluence and the compounds were added at a 10× concentration in 1/10 volume of medium without FCS containing 8% DMSO (final concentration of DMSO was kept at 0.8% v/v). After 18-20 hrs incubation at 37° C. and 5% CO2 in a humidified incubator the culture supernatant was harvested for the determination of Aβ40 concentrations. 96 well ELISA plates (e.g., Nunc MaxiSorb) were coated with monoclonal antibody which specifically recognize the C-terminal end of Aβ40 (Brockhaus et al., NeuroReport 9; 1481-1486; 1998). After blocking of non-specific binding sites with e.g. 1% BSA and washing, the culture supernatants were added in suitable dilutions together with a horseradish peroxidase-coupled Aβ detection antibody (e.g., antibody 4G8, Senetek, Maryland Heights, Mo.) and incubated for 5 to 7 hrs. Subsequently the wells of the microtiter plate were washed extensively with Tris-buffered saline containing 0.05% Tween 20 and the assay was developed with tetramethylbenzidine/H2O2 in citric acid buffer. After stopping the reaction with one volume 1 N H2SO4 the reaction was measured in an ELISA reader at 450 nm wavelength. The concentrations of Aβ in the culture supernatants were calculated from a standard curve obtained with known amounts of pure Aβ peptide.", "units": {"IC50": "pM"}, "values": [{"molecule": "CC[C@H](C)[C@H](NC(=O)[C@H](Cc1ccccc1)NC(=O)[C@H](Cc1ccc(O)cc1)NC(=O)[C@@H]1CCCN1C(=O)[C@@H](N)Cc1ccc(O)cc1)C(=O)N1CCC[C@H]1C(=O)N[C@@H](CC(C)C)C(=O)NCC(=O)NCC(=O)NCC(=O)N[C@@H](CCC(=O)O)C(=O)N[C@H](C(=O)N[C@@H](CC(N)=O)C(=O)N[C@@H](CC(C)C)[C@@H](O)CC(=O)N[C@H](C(=O)N[C@@H](C)C(=O)N[C@@H](CCC(=O)O)C(=O)N1CCC[C@@H]1C(=O)N[C@@H](CCCCNC(=O)CCC(=O)O[C@H]1CC[C@@]2(C)C(=CC[C@H]3[C@@H]4CC[C@H]([C@H](C)CCCC(C)C)[C@@]4(C)CC[C@@H]32)C1)C(N)=O)C(C)C)C(C)C", "note": "[Example 2, Tyr-Pro-Tyr-Phe-Ile-Pro-Leu-Gly-Gly-Gly-Glu-Val-Asn-Sta-Val-Ala-Glu-DPro-Lys(Chol)-NH2]", "IC50": 27}]}, {"target": "T1, BACE1", "test": "Cellular Aβ-lowering assay (Aβ40 ELISA of culture supernatant)", "type": "cell-based", "settings": "Aβ40 in supernatant of human HEK293 cells stably transfected with human APP wt (APP695); 18-20 hrs incubation; read-out: IC 50", "experimental": "as §1, §2, §3", "units": {"IC50": "pM"}, "values": [{"molecule": "CC[C@H](C)[C@H](NC(=O)[C@H](Cc1ccccc1)NC(=O)[C@H](Cc1ccc(O)cc1)NC(=O)[C@@H]1CCCN1C(=O)[C@@H](N)Cc1ccc(O)cc1)C(=O)N1CCC[C@H]1C(=O)N[C@@H](CC(C)C)C(=O)NCCOCCOCCOCCC(=O)N[C@@H](CCC(=O)O)C(=O)N[C@H](C(=O)N[C@@H](CC(N)=O)C(=O)N[C@@H](CC(C)C)[C@@H](O)CC(=O)N[C@H](C(=O)N[C@@H](C)C(=O)N[C@@H](CCC(=O)O)C(=O)N1CCC[C@@H]1C(=O)N[C@@H](CCCCNC(=O)CCC(=O)O[C@H]1CC[C@@]2(C)C(=CC[C@H]3[C@@H]4CC[C@H]([C@H](C)CCCC(C)C)[C@@]4(C)CC[C@@H]32)C1)C(N)=O)C(C)C)C(C)C", "note": "[Example 13, Tyr-Pro-Tyr-Phe-Ile-Pro-Leu-PEG(3)-Glu-Val-Asn-Sta-Val-Ala-Glu-DPro-Lys(Chol)-NH2] (H-YPYFIPL[PEG3]EVN[Sta]VAE[dP]K(Succinyl(4-O-cholesteryl))-NH2)", "IC50": 43}, {"molecule": "CC[C@H](C)[C@H](NC(=O)[C@H](Cc1ccccc1)NC(=O)[C@H](Cc1ccc(O)cc1)NC(=O)[C@@H]1CCCN1C(=O)[C@@H](N)Cc1ccc(O)cc1)C(=O)N1CCC[C@H]1C(=O)N[C@@H](CC(C)C)C(=O)NCCOCCOCCOCCOCCC(=O)N[C@@H](CCC(=O)O)C(=O)N[C@H](C(=O)N[C@@H](CC(N)=O)C(=O)N[C@@H](CC(C)C)[C@@H](O)CC(=O)N[C@H](C(=O)N[C@@H](C)C(=O)N[C@@H](CCC(=O)O)C(=O)N1CCC[C@@H]1C(=O)N[C@@H](CCCCNC(=O)CCC(=O)O[C@H]1CC[C@@]2(C)C(=CC[C@H]3[C@@H]4CC[C@H]([C@H](C)CCCC(C)C)[C@@]4(C)CC[C@@H]32)C1)C(N)=O)C(C)C)C(C)C", "note": "[Example 14, Tyr-Pro-Tyr-Phe-Ile-Pro-Leu-PEG(4)-Glu-Val-Asn-Sta-Val-Ala-Glu-DPro-Lys(Chol)-NH2] (H-YPYFIPL[PEG4]EVN[Sta]VAE[dP]K(Succinyl(4-O-cholesteryl))-NH2)", "IC50": 27}, {"molecule": "CC[C@H](C)[C@H](NC(=O)[C@H](Cc1ccccc1)NC(=O)[C@H](Cc1ccc(O)cc1)NC(=O)[C@@H]1CCCN1C(=O)[C@@H](N)Cc1ccc(O)cc1)C(=O)N1CCC[C@H]1C(=O)N[C@@H](CC(C)C)C(=O)NCC(=O)NCC(=O)NCC(=O)NCC(=O)N[C@@H](CCC(=O)O)C(=O)N[C@H](C(=O)N[C@@H](CC(N)=O)C(=O)N[C@@H](CCSC)[C@@H](O)CC(=O)N[C@H](C(=O)N[C@@H](C)C(=O)N[C@@H](CCC(=O)O)C(=O)N[C@H](Cc1ccccc1)C(=O)N[C@@H](CCCCNC(=O)CCC(=O)O[C@H]1CC[C@@]2(C)C(=CC[C@H]3[C@@H]4CC[C@H]([C@H](C)CCCC(C)C)[C@@]4(C)CC[C@@H]32)C1)C(N)=O)C(C)C)C(C)C", "note": "[Example 24, Tyr-Pro-Tyr-Phe-Ile-Pro-Leu-Gly-Gly-Gly-Gly-Glu-Val-Asn-MetSta-Val-Ala-Glu-DPhe-Lys(Chol)-NH2]", "IC50": 52}]}]}
